Results taken from PMC6940538 (Angewandte Chemie (International ed. in English), 2019).

Tests used:
crystal structure = target: the molecule itself; assay: crystal structure
AUC = target: the molecule itself; assay: AUC
SEC = target: the molecule itself; assay: SEC

| Protein | stoichiometry N (crystal structure) | stoichiometry N (AUC) | stoichiometry N (SEC) |
| --- | --- | --- | --- |
| MtmW (ΔN3) (enzyme, Streptomyces argillaceus, UniProt Q194Q1 4-326, looked up) VEFRSLGRSGLSVSEIVYGNLLYPQDDTPDEVVLSSIRAALDAGVTTFDTADVYGMFRSESLLGRALAGTPREELVLCTKVGMPTGFGPNGRGLSRKHVMESVDGSLRRLRVDHIDVYTAHRYDPATPLEELMWTFSDLVRAGKILYVGMSEWPVERIAEAAGIGARLGVPVICHMPRYSMLWRAPEAEVIPACRDLGIGQICYFTLEQGVLTGKYAPGAPPPAGSRATAPKGGRAPLMRRWLDDDKVLGRVERLRPLAEEAGLTTAHLAWVLQNPAVSGAVIGSFNAEQVLANAESAGVRLETDLLVRIDEVLGDSVVHDEE | 8 | – | – |
| MtmW (enzyme, Streptomyces argillaceus, UniProt Q194Q1 1-326, looked up) MVAVEFRSLGRSGLSVSEIVYGNLLYPQDDTPDEVVLSSIRAALDAGVTTFDTADVYGMFRSESLLGRALAGTPREELVLCTKVGMPTGFGPNGRGLSRKHVMESVDGSLRRLRVDHIDVYTAHRYDPATPLEELMWTFSDLVRAGKILYVGMSEWPVERIAEAAGIGARLGVPVICHMPRYSMLWRAPEAEVIPACRDLGIGQICYFTLEQGVLTGKYAPGAPPPAGSRATAPKGGRAPLMRRWLDDDKVLGRVERLRPLAEEAGLTTAHLAWVLQNPAVSGAVIGSFNAEQVLANAESAGVRLETDLLVRIDEVLGDSVVHDEE | – | 8 | ~8 |
